Measurements as given in patent US20110200615A1.

B1: 2B27 scFv (yeast displayed) (scFv)
scFv: EVQLQESGPGLVKPSETLSVTCAVSGGSISSSNYSWAWIRQPPGKGLEWIGTMYYSGSTHYHPSLKSRVTISVDTSKSQLSLKLSSVTAADTAVYYCARRRLLGPSPYYFDYWGQGTLVTVSSGGGGSGGGGSGGGGSQSVVTQPPSVSGAPGQRVTISCSGSSSNIGAGYDVHWYQQLPGTAPKLLIYGNNNRPSGVPDRFSGSKSGTSASLAITGLQAEDEADYYCQSYDSSLSAYVFGTGTKLTVLG
B2: 2B24 scFv (yeast displayed) (scFv)
scFv: QVQLVESGGGVVQPGRSLRLSCAASGLTFSVYGMHWVRQAPGKGLEWVAVISHTGSEEYYADSVKGRFSISRDNSNNTLFLQMNSLRPEDTAVYYCVKDGPMAAIPFYYFDFWGQGTLVTVSSGGGGSGGGGSGGGGSQSVVTQPPSVSAAPGQKVTISCSGSSSNIGNNYVSWYQQLPGTAPKLLIYDNNKRPSGIPDRFSGSKSGTSATLGITGLQTGDEADYYCGTWDSSLSAGVFGGGTKLTVLG
B3: 1B10 scFv (yeast displayed) (scFv)
scFv: QVQLVESGGGVVQPGRSLRLSCAASGFTFSHYGMHWVRQSPGKGLEWVAVIWYDGRNPYYAASVKGRFTISRDNDKNTLYLQMNSLRAEDTAVYYCVKDLTRFHDTTFGVFEMWGPGTTVTVSSGGGGSGGGGSGGGGSEIVLTQSPSSLSASVGDRITITCRASQSISSWLAWYQQKPGKAPMVLIYKASSLENGVPSRFSGSGSGTEFTLTISSLQPDDFATYYCQQYSTYSRTFGQGTKVEIKR
B4: 1B18 scFv (yeast displayed) (scFv)
scFv: EVQLVQSGGGLVQPGGSRRLSCAASGFYFNAYWMTWVRQAPGKGLEWVANINLDGTEIYYLDSVKGRFTVSRDNVKNSVFLQMSSLRVEDTAVYFCARLEWGGRNGWVSPWGQGTLVTVSSGGGGSGGGGSGGGGSDVVMTQSPSSVSASVGDRVTITCRASQSISSYLNWYQQRPGKAPKLLIFAASSLQSAVPSRFSGSGSGTDFTLTISSLQPEDFATYYCQQSYSTPPTFGQGTKVEIKR
B5: 2B25 scFv (yeast displayed) (scFv)
scFv: QVQLQESGPGLVKPSQTLSLSCSVSGASITSGTFYWSWIRQHPGKDLEWIGYIYYSGTTYYNPSLKSRVTLSVDTSKNQFSLKVTSLTAADTAVYHCARGVPIYDSSGTYRGTYFDYWGQGTLVTVSSGGGGSGGGGSGGGGSQPGLTQPPSASGTPGQRVTISCSGSSSNVGSNTVNWYQQLPGTAPKLLIYRNDQRPSGVPDRFSGSKSGASASLAISGLRSEDEADYYCAAWDDSLNGLLFGGGTQLTVLG
B6: 1B11 scFv (yeast displayed) (scFv)
scFv: QVQLLQSAGGVVQPGRSLRLSCAASGFIFRTYGMHWVRQAPGKGLEWVAFVSSDGNNKFYSDSVKGRFTIPRDNAKNTLYLQMNSLETEDTAVYYCAKDRYPIDCSGGSCFSYGMDVWGQGTTVTVSSGGGGSGGGGSGGGGSDIVMTQSPSTLSASVGDRVTVTCRASQSINSWLAWYQQKPGKAPKLLIYEASSLESGVPSRFSGSGSGTEFTLTISSLQPDDFATYYCQQYDSYWLTFGGGTKVEIK
B7: 2B23 scFv (yeast displayed) (scFv)
scFv: EVQLLESGGGLVQPGGSLRLSCAASGFTFSNYPMSWVRQAPGKGLAWVSSLTASGDNTFYADSVKGRFTISRDNSNNTLYLQMHSLRAEDTAVYYCAKALVGRYDISTGYYRPVMDSWGQGTLVTVSSGGGGSGGGGSGGGGSDIQMTQSPPSLSASVGDRVTITCRTSQGFTSALAWYQQKPGEPPKLLIYDASKLESGVPSRFSGSGSGTNFALTISSLQPEDFATYFCQQSNSYPLTFGGGTKVEIKR
B8: 1B18 IgG (antibody, V domains shown)
VH: EVQLVQSGGGLVQPGGSRRLSCAASGFYFNAYWMTWVRQAPGKGLEWVANINLDGTEIYYLDSVKGRFTVSRDNVKNSVFLQMSSLRVEDTAVYFCARLEWGGRNGWVSPWGQGTLVTVSS
VL: DVVMTQSPSSVSASVGDRVTITCRASQSISSYLNWYQQRPGKAPKLLIFAASSLQSAVPSRFSGSGSGTDFTLTISSLQPEDFATYYCQQSYSTPPTFGQGTKVEIKR
B9: 2B25.1 IgG (antibody, V domains shown)
VH: QVQLQESGPGLVKPSQTLSLSCSVSGASITSGTFYWSWIRQHPGKDLEWIGYIYYSGTTYYNPSLKSRVTLSVDTSKNQFSLKVTSLTAADTAVYHCARGVPIYDSSGTYRGTYFDYWGQGTLVTVSS
VL: ESVLTQPPSVSAAPGQKVTISCSGSSSNIGNNYVSWYQQLPGTAPKLLIYDNNRRPSGIPDRFSGSKSGTSATLGITGLQTGDEADYYCGTWDSSLSEVVFGGGTKVTVLG
B10: 1B10.1 IgG (antibody, V domains shown)
VH: QVQLVESGGGVVQPGRSLRLSCAASGFTFSHYGMHWVRQSPGKGLEWVAVIWYDGRNPYYAASVKGRFTISRDNDKNTLYLQMNSLRAEDTAVYYCVKDLTRFHDTTFGVFEMWGPGTTVTVSS
VL: EIVLTQSPSFVSASVGDRVTITCRASQGISSWLAWYQQKPGKAPKLLIYAASSLQSGVPSRFSGSGSGTEFTLTISSLQPDDFATYYCQQYSSLYTFGQGTKVDIKR
B11: B11E8 IgG (antibody, V domains shown)
VH: EVQLVQSGGGVVQPGRSLRLSCAASGFIFRTYGMHWVRQAPGKGLEWVAFVSSDGNNKFYSDSVKGRFTISRDNAKNTLYLQMNSLETEDTAMYYCAKDRYPIDCSGGSCFSYGMDVWGQGTTVTVSS
VL: EIVLTQSPATLSVSPGERATLSCRASQSVSKFLAWYQQKRGQAPRLLIYGASTRATGIPARFSGSGSGTEFALTISSLQSEDFADYYCQQYDNWPITFGQGTRLEIKR
B12: B12.1 IgG (antibody, V domains shown)
VH: QVNLRESGGGVVQPGRSLRLSCAASGFTFSSYALHWVRQTPGKGLEWVALISYDGSNKYYADSVKGRFTISRDNSKNMLYLQMNSLRAEDTAVYYCAKDRSHYGDYVGYLDYWGQGTLVTVSS
VL: AYVLTQPPSVSVAPGKTAAITCEGNNVGNKNVHWYQQRPGQAPVLVVHDDSDRPSGIPERFSGSNSGNTATLTINRVEAGDEADYYCQVWDSSSAQWVFGGGTKLTVLG
B13: 2B23 IgG (antibody, V domains shown)
VH: EVQLLESGGGLVQPGGSLRLSCAASGFTFSNYPMSWVRQAPGKGLAWVSSLTASGDNTFYADSVKGRFTISRDNSNNTLYLQMHSLRAEDTAVYYCAKALVGRYDISTGYYRPVMDSWGQGTLVTVSS
VL: DIQMTQSPPSLSASVGDRVTITCRTSQGFTSALAWYQQKPGEPPKLLIYDASKLESGVPSRFSGSGSGTNFALTISSLQPEDFATYFCQQSNSYPLTFGGGTKVEIKR

Biological target: Botulinum neurotoxin type B, subtype B3 (BoNT/B3) (Clostridium botulinum)
Assay: flow cytometry; yeast-displayed scFv, soluble toxin

First: B1
Second: B2
The Kd of the first is 1.7-fold lower: 2.32 nM for the first, 4 nM for the second.

Compared with B3, B4 is lower in Kd: > 5000 nM for the first, 3.04 nM for the second. The second binds more tightly here.

Going from B5 to B6, the Kd rises from 0.93 nM to 4.43 nM (4.8-fold).

With B7 the Kd was 0.25 nM.

Biological target: Botulinum neurotoxin type B, subtype B4 (BoNT/B4) (Clostridium botulinum)
Assay: as above

B1 and B2 are within 1.5-fold of each other in Kd: 0.77 nM for the first, 0.72 nM for the second.

Compared with B3, B4 is 2.8-fold lower in Kd: 4.69 nM for the first, 1.7 nM for the second.

Going from B5 to B7, the Kd falls from 0.68 nM to 0.19 nM (3.6-fold). The second binds more tightly here.

Biological target: Botulinum neurotoxin type B, subtype B3 (BoNT/B3) (Clostridium botulinum)
Assay: KinExA flow fluorimetry; IgG in solution

First: B8
Second: B9
The Kd of the first is 55-fold higher: 0.972 nM for the first, 0.0177 nM for the second.

Going from B10 to B11, the Kd falls from 1.2 nM to 0.0156 nM (77-fold).

B12 and B13 are within 1.5-fold of each other in Kd: 0.0462 nM for the first, 0.048 nM for the second.

Biological target: Botulinum neurotoxin type B, subtype B4 (BoNT/B4) (Clostridium botulinum)
Assay: KinExA flow fluorimetry; IgG in solution

B8 and B9 are within 1.5-fold of each other in Kd: 0.021 nM for the first, 0.03 nM for the second.

First: B10
Second: B12
The Kd of the first is 1300-fold lower: 0.00047 nM for the first, 0.625 nM for the second.

B13 gave a Kd of 0.0552 nM.
